In patent US20130142799A1 (Amgen, published 2013):

Legend:
human angiopoietin-1 [1] = molecular target: T1, human angiopoietin-1 (human, UniProt Q15389 20-498); experiment: Neutralization ELISA: antibody titrated against 1 nM Tie2-Fc on plate-bound hAng-1
T1 construct: also called hAng-1; Human Ang1
T1 sequence (looked up): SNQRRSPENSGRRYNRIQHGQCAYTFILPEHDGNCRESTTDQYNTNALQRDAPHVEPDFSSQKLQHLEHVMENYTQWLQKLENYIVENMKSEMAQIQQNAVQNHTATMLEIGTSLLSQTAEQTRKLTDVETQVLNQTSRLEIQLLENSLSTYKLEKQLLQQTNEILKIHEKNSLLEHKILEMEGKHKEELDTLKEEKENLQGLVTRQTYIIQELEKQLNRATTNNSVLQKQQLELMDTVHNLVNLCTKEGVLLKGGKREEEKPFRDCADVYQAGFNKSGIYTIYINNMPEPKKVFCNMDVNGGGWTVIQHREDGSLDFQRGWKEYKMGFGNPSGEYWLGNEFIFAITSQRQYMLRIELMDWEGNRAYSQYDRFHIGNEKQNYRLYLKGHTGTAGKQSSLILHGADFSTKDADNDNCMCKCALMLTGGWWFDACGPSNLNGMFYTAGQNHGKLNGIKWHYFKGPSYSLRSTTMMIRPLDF

human angiopoietin-2 [2] = molecular target: T2, human angiopoietin-2 (human, UniProt O15123 19-496, limits assumed); experiment: Neutralization ELISA: antibody titrated against 1 nM Tie2-Fc on plate-bound hAng-2
T2 construct: also called hAng-2; huAng-2
T2 sequence (looked up): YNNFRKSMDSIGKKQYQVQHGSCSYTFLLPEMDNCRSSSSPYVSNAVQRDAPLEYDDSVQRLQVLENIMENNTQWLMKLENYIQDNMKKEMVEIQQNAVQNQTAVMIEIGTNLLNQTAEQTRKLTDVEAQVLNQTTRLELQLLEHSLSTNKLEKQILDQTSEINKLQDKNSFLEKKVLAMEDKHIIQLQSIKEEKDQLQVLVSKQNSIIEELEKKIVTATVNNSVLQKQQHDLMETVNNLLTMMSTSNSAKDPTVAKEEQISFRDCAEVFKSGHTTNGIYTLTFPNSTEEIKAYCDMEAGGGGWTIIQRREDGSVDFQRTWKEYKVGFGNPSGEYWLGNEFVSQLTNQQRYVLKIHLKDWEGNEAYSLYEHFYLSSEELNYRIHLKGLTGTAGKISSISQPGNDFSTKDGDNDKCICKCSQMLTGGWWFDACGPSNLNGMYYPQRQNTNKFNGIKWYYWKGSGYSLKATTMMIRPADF
Procedure: Microtiter plates to which human Ang-2 polypeptide was bound were prepared as described for the Affinity ELISA. […] Next, about 100 microliters per well of goat anti-mouse-IgG-HRP (Pierce Chemical CO., catalog #31432) was added at a dilution of 1:10,000 in PBS containing about 1 percent BSA. Plates were incubated at room temperature for about 1 hour, after which they were washed five times with PBS containing about 0.1 percent Tween-20. About 100 microliters per well of TMB substrate (described above) was then added and color was allowed to develop. Absorbance was then read in a spectrophotomer at 370 nm.
Seventeen of the antibodies and a negative control IgG1 (referred to as RDB1) were tested using affinity and neutralization ELISA (as described in Example 3 above) as well as the BIAcore neutralization assay to determine their affinity, neutralization, and specificity capabilities.

murine Ang-2, His-tagged [3] = molecular target: T3, murine Ang-2, His-tagged (mouse, UniProt O35608 19-496); experiment: Neutralization ELISA: antibody titrated against 1 nM Tie2-Fc on plate-bound mAng-2
T3 construct: also called mAng-2; mAng-2-His
T3 sequence (looked up): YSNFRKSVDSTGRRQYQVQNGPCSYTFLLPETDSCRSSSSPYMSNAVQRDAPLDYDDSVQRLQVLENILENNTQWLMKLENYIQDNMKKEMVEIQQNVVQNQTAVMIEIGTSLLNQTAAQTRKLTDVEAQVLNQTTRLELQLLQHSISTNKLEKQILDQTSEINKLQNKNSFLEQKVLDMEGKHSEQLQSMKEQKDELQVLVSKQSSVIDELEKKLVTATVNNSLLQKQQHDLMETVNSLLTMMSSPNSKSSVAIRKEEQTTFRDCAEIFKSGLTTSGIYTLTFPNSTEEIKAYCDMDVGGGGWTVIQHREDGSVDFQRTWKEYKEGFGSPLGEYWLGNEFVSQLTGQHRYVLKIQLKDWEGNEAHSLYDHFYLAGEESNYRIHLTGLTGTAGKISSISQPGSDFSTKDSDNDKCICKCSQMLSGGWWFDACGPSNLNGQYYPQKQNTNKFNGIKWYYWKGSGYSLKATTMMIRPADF

human angiopoietin-1 [4] = molecular target: T1, human angiopoietin-1; experiment: Affinity ELISA on plate-bound hAng-1
human angiopoietin-2 [5] = molecular target: T2, human angiopoietin-2; experiment: Affinity ELISA on plate-bound hAng-2
murine Ang-2, His-tagged [6] = molecular target: T3, murine Ang-2, His-tagged; experiment: Affinity ELISA on plate-bound mAng-2
murine Ang-2, His-tagged [7] = molecular target: T3, murine Ang-2, His-tagged; experiment: BIAcore: antibody captured on Protein G, mAng-2 injected
Procedure: (§1) Binding assays were carried out by first attaching about 100 Ru of each candidate anti-Ang-2 antibody to the immobilized Protein G, after which various concentrations (0-100 nM) of huAng-2 or mAng-2 were then injected over the bound antibody surface at a flow rate of about 50 ul/min for about 3 minutes. Antibody binding kinetics including kₐ (association rate constant), kd (dissociation rate constant) and KD (dissociation equilibrium constant) were determined using the BIA evaluation 3.1 computer program (BIAcore, Inc.).

human angiopoietin-2 [8] = molecular target: T2, human angiopoietin-2; experiment: BIAcore: antibody captured on Protein G, huAng-2 injected
Procedure: as §1

human angiopoietin-2 [9] = molecular target: T2, human angiopoietin-2; experiment: HTRF: antibody titrated against biotinylated human Ang2 and APC-conjugated human Tie2-Fc
Procedure: For HTRF assays, a ninety-six-well microtiter “mix plate” was prepared by adding 50 ul of HTRF buffer (50 mM Tris-HCl, pH 7.5, 100 mM NaCl, 0.05% Tween 20, 0.1% BSA) containing 0.8 nM Europium-conjugated streptavidin (PERKIN ELMER LIFE SCIENCES INC., catalog #AD0062) and 4.0 nM biotinylated human angiopoietin 1 (R & D Systems) or angiopoietin 2 (Amgen Inc.) to each well. In a separate microtiter plate, angiopoietin-neutralizing agents were titrated from 400 nM to […] in HTRF buffer, and 50 ul of each serially-diluted angiopoietin-neutralizing agent were then transferred and mixed with the “mix plate” containing the streptavidin-Europium/angiopoietin. The plate was then incubated on a shaker at room temperature for one hour. […] The final “assay plate” was incubated at room temperature with shaking for two hours. […] Assay plates were analyzed using a Rubystar plate reader (BMG Labtechnologies, Offenberg, Germany). […] IC50 values were then calculated by analyzing percentage inhibition using the GRAFIT 5.0 program (Erithacus Software Ltd.).
(§2) All results were expressed as IC50 curves calculated from samples that were tested in duplicate using the formula below.

human angiopoietin-2 [10] = molecular target: T2, human angiopoietin-2; experiment: ELISA: antibody titrated against 1 nM hTie2-Fc on plate-bound human Ang2 (293T conditioned media)
Procedure: (§3) For the ELISA assay, ninety-six-well microtiter plates were coated with recombinant angiopoietins in 293T cell conditioned media (DMEM/50 ug/ml BSA) at 37° C. for 1 hour. […] Plates were washed with PBS/0.1% Tween-20 and then blocked for 2 hours at room temperature with PBS/5% BSA. […] Goat anti-mouse-IgG-HRP (Pierce, catalog #31432) was added at a dilution of 1:10,000 in PBS/1% BSA (1 hour incubated at room temperature), after which plates were washed several times with PBS/0.1% Tween-20.
as §2

[11] = molecular target: T4, Mouse Ang2 (recombinant, 293T cell conditioned media) (mouse, UniProt O35608 19-496); experiment: ELISA: antibody titrated against 1 nM hTie2-Fc on plate-bound mouse Ang2 (293T conditioned media)
T4 construct: construct not described
T4 sequence (looked up): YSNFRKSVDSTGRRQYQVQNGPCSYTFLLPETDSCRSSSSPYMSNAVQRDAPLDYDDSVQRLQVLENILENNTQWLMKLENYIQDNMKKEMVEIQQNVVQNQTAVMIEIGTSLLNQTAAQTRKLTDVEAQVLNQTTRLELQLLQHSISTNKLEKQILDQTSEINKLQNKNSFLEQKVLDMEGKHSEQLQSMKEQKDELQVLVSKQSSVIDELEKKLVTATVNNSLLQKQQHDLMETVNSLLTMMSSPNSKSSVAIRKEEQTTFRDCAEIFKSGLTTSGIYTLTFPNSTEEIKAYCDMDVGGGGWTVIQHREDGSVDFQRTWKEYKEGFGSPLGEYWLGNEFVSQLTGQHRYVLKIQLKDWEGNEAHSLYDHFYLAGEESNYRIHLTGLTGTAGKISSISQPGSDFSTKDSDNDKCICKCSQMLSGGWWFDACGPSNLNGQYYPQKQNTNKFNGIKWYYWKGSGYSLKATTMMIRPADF
Procedure: as §3, §2

Row | Binder | IC50 (human angiopoietin-1 [1]) [nM] | IC50 (human angiopoietin-2 [2]) [nM] | IC50 (murine Ang-2, His-tagged [3]) [nM] | EC50 (human angiopoietin-1 [4]) [nM] | EC50 (human angiopoietin-2 [5]) [nM] | EC50 (murine Ang-2, His-tagged [6]) [nM] | Kd (murine Ang-2, His-tagged [7]) [nM] | koff (murine Ang-2, His-tagged [7]) [s⁻¹] | kon (murine Ang-2, His-tagged [7]) [M⁻¹ s⁻¹] | Kd (human angiopoietin-2 [8]) [nM] | koff (human angiopoietin-2 [8]) [s⁻¹] | kon (human angiopoietin-2 [8]) [M⁻¹ s⁻¹] | IC50 (human angiopoietin-2 [9]) [nM] | IC50 (human angiopoietin-2 [10]) [nM] | IC50 [11] [nM]
1 | Ab 544 (antibody, human IgG1, lambda, V domains shown, also called clone 544) VH: QVQLVQSGAEVKKPGASVKVSCKASGGTFSSYAISWVRQAPGQGLEWMGGIIPIFGTANYAQKFQGRVTITADESTSTAYMELSSLRSEDTAVYYCARFESGYWGDAFDIWGQGTMVTVSS VL: SYELTQPPSVSVSPGQTARITCSGDALPKQYAYWYQQKPGQAPVLVIYKDSERPSGIPERFSGSSSGTTVTLTISGVQAEDEADYYCQSADSSHVVFGGGTKLTVLG | 23.3 | 0.97 | 1.82 | – | – | – | – | – | – | – | – | – | – | – | –
2 | Ab G1D4 (antibody, human IgG1, lambda, V domains shown, Fully human IgG1 lambda) VH: QVQLVQSGAEVKKPGSSVKVSCKASGGTFSSHAISWVRQAPGQGLEWMGRIIPILGIANYAQKFQGRVTITADESTSTAYMELSSLRSEDTAVYYCATSRLEWLLYLDYWGQGTLVTVSS VL: NFMLTQPHSVSESPGKTVIIPCTRSSGSIASNYVQWYQKRPGSAPSIVIYEDKQRPSGVPDRFSGSIDSSSNSASLTISGLKTEDEADYYCQSYNSRGVMFGGGTKLTVLG | 69.5 | 1.39 | 0.6 | – | – | – | – | – | – | – | – | – | – | – | –
3 | Ab 526 (antibody, human IgG1, kappa, V domains shown, Fully human IgG1 kappa) VH: EVQLVESGGGVVQPGRSLRLSCAASGFTFSSYGMHWVRQAPGKGLEWVSAISGSGGSTYYADSVKGRFTISRDNAKNSLYLQMNSLRAEDTAVYYCARDLLDYDILTGPYAYWGQGTLVTVSS VL: not shown | 243 | 1.83 | 0.27 | – | – | – | – | – | – | – | – | – | – | – | –
4 | Ab 536 (THW/LQT mixture) (antibody, V domains shown, each antibody in the mixture has two heavy and two light chains; also called clone 536; copies: 2 + 2) VH: EVQLVQSGGGVVQPGRSLRLSCAASGFTFSSYGMHWVRQAPGKGLEWVSYISSSGSTIYYADSVKGRFTISRDNAKNSLYLQMNSLRAEDTAVYYCARDLLDYDILTGYGYWGQGTLVTVSS VL: not shown | 115 | 0.08 | 0.05 | 30 | 0.005 | 0.01 | 0.15 | 9.5e-05 | 620000 | 0.12 | 3.8e-05 | 320000 | – | – | –
5 | Ab536 THW (antibody, human IgG1, kappa, V domains shown, Fully human IgG1 kappa; variant separated from the clone 536 mixture; also called 536 kappa THW variant) VH: EVQLVQSGGGVVQPGRSLRLSCAASGFTFSSYGMHWVRQAPGKGLEWVSYISSSGSTIYYADSVKGRFTISRDNAKNSLYLQMNSLRAEDTAVYYCARDLLDYDILTGYGYWGQGTLVTVSS VL: not shown | – | – | – | – | – | – | – | – | – | – | – | – | 0.071 | 0.31 | 0.088
6 | Ab536 LQT (antibody, human IgG1, kappa, V domains shown, Fully human IgG1 kappa; variant separated from the clone 536 mixture; also called 536 kappa LQT variant) VH: EVQLVQSGGGVVQPGRSLRLSCAASGFTFSSYGMHWVRQAPGKGLEWVSYISSSGSTIYYADSVKGRFTISRDNAKNSLYLQMNSLRAEDTAVYYCARDLLDYDILTGYGYWGQGTLVTVSS VL: not shown | – | – | – | – | – | – | – | – | – | – | – | – | 0.072 | 0.35 | 0.1
7 | Ab 545 (antibody, human IgG1, lambda, V domains shown, Fully human IgG1 lambda; also called clone 545) VH: QVQLQESGGGVVQPGRSLRLSCAASGFTFSSYGMHWVRQAPGKGLEWVAVISYDGSNKYYADSVKGRFTISRDNSKNTLYLQMNSLRAEDTAVYYCAKGPVDFDYGDYAIDYWGQGTLVTVSS VL: QSVLTQPSSVSGAPGQRVTISCTGQSSNIGAGYDVHWYQQFPGRAPKLLIYGNSNRPSGVPDRFSGSKSGTSASLAITGLQPEDEADYYCQSYDSRLSGSVFGGGTKLTVLG | 8.31 | 1.04 | 1.3 | 2 | 0.02 | 0.05 | 0.9 | 0.00053 | 590000 | 1.2 | 0.00039 | 330000 | – | – | –
